These are literature values, as cited in article PMC7654312.

Data set [1] deals with Lys210.
The target of data set [2] is Lys210 (UniProt position 210, VVKVAKLGISE).

The pKa is the negative logarithm of the acid dissociation constant. As to “Retro-aldolase RA95.5 (evolved variant of RA95.0) (synthetic construct (design on an indole-3-glycerol phosphate synthase TIM-barrel scaffold); T83K)”, in data set [1], the pKa is listed as 7.6.
Take “Retro-aldolase RA95.0 (computationally designed) (synthetic construct (design on an indole-3-glycerol phosphate synthase TIM-barrel scaffold))”: the pKa in data set [2] is 8.1.
